Assay results: patent US20220289852A1 (ACCELERON PHARMA, published 2022)

Assays:
Test in all cases: SPR (Biacore), receptor-Fc captured by anti-Fc antibody, ligand injected
[1] = target: T1, activin AC (UniProt P08476 311-426; P55103 237-352)
T1 sequence (looked up) 1: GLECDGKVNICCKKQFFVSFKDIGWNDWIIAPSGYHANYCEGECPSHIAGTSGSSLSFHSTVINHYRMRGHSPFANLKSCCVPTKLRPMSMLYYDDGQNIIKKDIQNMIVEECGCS
T1 sequence (looked up) 2: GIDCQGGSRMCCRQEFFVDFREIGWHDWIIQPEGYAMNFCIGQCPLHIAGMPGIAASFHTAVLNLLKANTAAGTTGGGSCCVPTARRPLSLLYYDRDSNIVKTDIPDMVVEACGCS
Experimental: (§1) A Biacore™-based binding assay was used to compare ligand binding selectivity of the ActRIIB-Fc:ALK7-Fc heterodimeric complex described above with that of ActRIIB-Fc and ALK7-Fc homodimeric complexes. The ActRIIB-Fc:ALK7-Fc heterodimer, ActRIIB-Fc homodimer, and ALK7-Fc homodimer were independently captured onto the system using an anti-Fc antibody. Ligands were injected and allowed to flow over the captured receptor protein. Results are summarized in the table below, in which ligand off-rates (kd) most indicative of effective ligand traps are denoted by bold text.

[2] = target: T2, BMP6 (UniProt P22004 375-513, limits assumed)
T2 sequence (looked up): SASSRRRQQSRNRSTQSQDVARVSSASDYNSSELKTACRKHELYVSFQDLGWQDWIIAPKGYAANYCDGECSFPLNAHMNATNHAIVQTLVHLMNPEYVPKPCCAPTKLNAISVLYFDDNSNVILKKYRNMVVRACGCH
Experimental: as §1

[3] = target: T3, BMP5 (UniProt P22003 317-454, limits assumed)
T3 sequence (looked up): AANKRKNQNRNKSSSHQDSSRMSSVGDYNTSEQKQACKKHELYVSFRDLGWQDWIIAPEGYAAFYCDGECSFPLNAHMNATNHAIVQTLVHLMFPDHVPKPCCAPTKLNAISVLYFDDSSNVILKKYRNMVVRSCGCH
Experimental: as §1

[4] = target: T4, activin C (UniProt P55103 237-352)
T4 sequence (looked up): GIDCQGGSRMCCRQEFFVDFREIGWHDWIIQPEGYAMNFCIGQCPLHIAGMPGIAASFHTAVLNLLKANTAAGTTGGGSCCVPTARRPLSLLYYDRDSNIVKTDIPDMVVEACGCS
Experimental: as §1

[5] = target: T5, activin A (UniProt P08476 311-426)
T5 sequence (looked up): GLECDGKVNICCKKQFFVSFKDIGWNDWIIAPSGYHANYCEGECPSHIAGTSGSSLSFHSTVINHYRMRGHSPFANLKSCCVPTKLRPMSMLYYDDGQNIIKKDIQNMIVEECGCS
Experimental: as §1

[6] = target: T6, activin B (UniProt P09529 293-407)
T6 sequence (looked up): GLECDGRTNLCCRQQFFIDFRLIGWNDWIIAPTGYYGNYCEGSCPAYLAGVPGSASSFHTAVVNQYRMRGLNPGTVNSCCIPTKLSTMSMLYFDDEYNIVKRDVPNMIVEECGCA
Experimental: as §1

- Kd [1]: 0.16 nM
- koff [1]: 0.0031 s⁻¹
- kon [1]: 2e+07 M⁻¹ s⁻¹
- Kd [2]: 0.16 nM
- koff [2]: 0.0039 s⁻¹
- kon [2]: 2.4e+07 M⁻¹ s⁻¹
- Kd [3]: 2.9 nM
- koff [3]: 0.075 s⁻¹
- kon [3]: 2.6e+07 M⁻¹ s⁻¹
- binding result [4]: no binding
- Kd [5]: 0.011 nM
- koff [5]: 0.00014 s⁻¹
- kon [5]: 1.3e+07 M⁻¹ s⁻¹
- Kd [6]: 0.008 nM
- koff [6]: 0.00016 s⁻¹
- kon [6]: 1.5e+07 M⁻¹ s⁻¹
B1: ActRIIB-Fc homodimer (Fc fusion)
chain: GRGEAETRECIYYNANWELERTNQSGLERCEGEQDKRLHCYASWRNSSGTIELVKKGCWLDDFNCYDRQECVATEENPQVYFCCCEGNFCNERFTHLPEAGGPEVTYEPPPTAPT
notes: also called ActRIIB-Fc homodimeric complex; ActRIIB homodimer; not shown: linker and Fc domain of the homodimer
